Patent US20240424167A1
No end group written: not given here.

Tests used:
[1] = biological target: type III collagen of the SIS membrane; assay: CLSM, SIS membrane soaked in 200 µM chimeric peptide solution (H-pSIS)
[2] = biological target: type I collagen of the SIS membrane; assay: as above

Binder | fluorescent area of the SIS membrane [1] [%] | fluorescent area of the SIS membrane [2] [%]
KELNLVYGGGGSGGGGSSHREFPFYGDYGS (also: fluorescent label rhodamine B or FITC (paragraphs differ), position not given here) [P11 polypeptide (KELNLVY+linker-1+Hst1)] | > 85 | 
KELNLVYGGGGSGGGGSKRLFRRWQWRMKKY (also: fluorescent label rhodamine B or FITC (paragraphs differ), position not given here) [P12 polypeptide (KELNLVY+linker-1+JH8194)] | > 85 | 
TKKTLRTGGGGSGGGGSKRLFRRWQWRMKKY (also: fluorescent label FITC or rhodamine B (paragraphs differ), position not given here) [P10 polypeptide (TKKTLRT+linker-1+JH8194)] |  | > 85
TKKTLRTGGGGSGGGGSSHREFPFYGDYGS (also: fluorescent label FITC or rhodamine B (paragraphs differ), position not given here) [P9 polypeptide (TKKTLRT+linker-1+Hst1)] |  | > 85
